Residue numbers refer to the chain shown, from its start. Names may count otherwise.
B1: FIXa-Y155F/K247N/N249S/R318Y/R403E (protein)
chain 1: YNSGKLEEFVQGNLERECMEEKCSFEEAREVFENTERTTEFWKQYVDGDQCESNPCLNGGSCKDDINSYECWCPFGFEGKNCELDVTCNIKNGRCEQFCKNSADNKVVCSCTEGYRLAENQKSCEPAVPFPCGRVSVSQTSKLTR
chain 2: VVGGEDAKPGQFPWQVVLNGKVDAFCGGSIVNEKWIVTAAHCVETGVKITVVAGEHNIEETEHTEQNRSVIRIIPHHNYNAAINKYNHDIALLELDEPLVLNSYVTPICIADKEYTNIFLKFGSGYVSGWGRVFHKGYSALVLQYLRVPLVDRATCLRSTKFTIYNNMFCAGFHEGGRDSCQGDSGGPHVTEVEGTSFLTGIISWGEECAMKGKYGIYTKVSEYVNWIKEKTKLT
B2: FIXa-Y155F/K247N/N249S/R318Y/E410N (protein)
chain 1: B1 chain 1
chain 2: B1 chain 2 with E223R, E230N
B3: FIXa-K247N/N249S/R318Y/R338E/R403E (protein)
chain 1: B1 chain 1
chain 2: B1 chain 2 with R158E
B4: FIXa-Y155F/K247N/N249S/T343R/E410N (protein)
chain 1: B1 chain 1
chain 2: B1 chain 2 with Y138R, T163R, E223R, E230N
B5: FIXa-Y155F/R318Y/T343R/R403E (protein)
chain 1: B1 chain 1
chain 2: B1 chain 2 with N67K, S69N, T163R
B6: FIXa-Y155F/R318Y/T343R/E410N (protein)
chain 1: B1 chain 1
chain 2: B1 chain 2 with N67K, S69N, T163R, E223R, E230N
B7: FIXa-K247N/N249S/T343R/R403E/E410N (protein)
chain 1: B1 chain 1
chain 2: B1 chain 2 with Y138R, T163R, E230N
B8: FIXa-Y155F/K247N/N249S/R318Y/R338E/T343R/E410N (protein)
chain 1: B1 chain 1
chain 2: B1 chain 2 with R158E, T163R, E223R, E230N
B9: FIXa-Y155F/K247N/N249S/R318Y/R338E/T343R (protein)
chain 1: B1 chain 1
chain 2: B1 chain 2 with R158E, T163R, E223R
B10: FIXa-Y155F/T343R/R403E/E410N (protein)
chain 1: B1 chain 1
chain 2: B1 chain 2 with N67K, S69N, Y138R, T163R, E230N
B11: FIXa-Y155F/K247N/N249S/R338E/R403E (protein)
chain 1: B1 chain 1
chain 2: B1 chain 2 with Y138R, R158E
B12: FIXa-Y155F/R318Y/R338E/T343R (protein)
chain 1: B1 chain 1
chain 2: B1 chain 2 with N67K, S69N, R158E, T163R, E223R
B13: FIXa-K247N/N249S/R318Y/R338E/T343R (protein)
chain 1: B1 chain 1
chain 2: B1 chain 2 with R158E, T163R, E223R
B14: FIXa-R318Y/R338E/T343R (protein)
chain 1: B1 chain 1
chain 2: B1 chain 2 with N67K, S69N, R158E, T163R, E223R
B15: FIXa-R318Y/R338E/T343R/E410N (protein)
chain 1: B1 chain 1
chain 2: B1 chain 2 with N67K, S69N, R158E, T163R, E223R, E230N
B16: FIXa-Y155F/K247N/N249S/R338E/T343R (protein)
chain 1: B1 chain 1
chain 2: B1 chain 2 with Y138R, R158E, T163R, E223R
B17: FIXa-Y155F/K247N/N249S/R318Y/R338E/R403E (protein)
chain 1: B1 chain 1
chain 2: B1 chain 2 with R158E
B18: FIXa-Y155F/R338E/T343R/R403E/E410N (protein)
chain 1: B1 chain 1
chain 2: B1 chain 2 with N67K, S69N, Y138R, R158E, T163R, E230N
B19: FIXa-Y155F/K247N/N249S/R403E/E410N (protein)
chain 1: B1 chain 1
chain 2: B1 chain 2 with Y138R, E230N
B20: FIXa-Y155F/R338E/T343R/E410N (protein)
chain 1: B1 chain 1
chain 2: B1 chain 2 with N67K, S69N, Y138R, R158E, T163R, E223R, E230N

Chain of Factor X (FX), P00742 (P00742 whole entry, looked up): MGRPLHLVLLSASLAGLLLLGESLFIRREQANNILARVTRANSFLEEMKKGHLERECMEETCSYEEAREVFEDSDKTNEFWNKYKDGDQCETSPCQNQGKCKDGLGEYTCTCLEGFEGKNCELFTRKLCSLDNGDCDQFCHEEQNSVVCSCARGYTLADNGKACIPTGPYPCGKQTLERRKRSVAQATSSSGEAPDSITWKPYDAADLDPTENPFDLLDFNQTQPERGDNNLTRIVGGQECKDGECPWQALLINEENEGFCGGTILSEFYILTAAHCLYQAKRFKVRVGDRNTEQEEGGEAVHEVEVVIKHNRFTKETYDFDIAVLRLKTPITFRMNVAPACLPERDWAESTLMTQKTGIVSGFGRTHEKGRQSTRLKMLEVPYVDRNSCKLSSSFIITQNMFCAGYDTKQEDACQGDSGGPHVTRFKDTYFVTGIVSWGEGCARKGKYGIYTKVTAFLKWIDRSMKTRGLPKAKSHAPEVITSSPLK
Chain of Factor X, P00742 (P00742 whole entry, looked up): as above

Row | Protein | % of WT kcat/KM (Factor X (FX), P00742) | KM (Factor X (FX), P00742) | kcat/KM for FX activation (Xase: FVIIIa, PC/PS vesicles, Ca2+) (Factor X (FX), P00742) | kcat (Factor X, P00742) | kcat of FX activation by FIXa (Xase complex with FVIIIa, PC/PS vesicles, Ca2+) (Factor X (FX), P00742) | % of WT kcat/KM (Factor X, P00742) | kcat/KM (Factor X, P00742) | kcat (s^-1) of FX activation by FIXa variant in the Xase complex (FVIIIa, PC/PS vesicles, Ca2+), fluorogenic FXa read-out (Factor X (FX), P00742) | KM (Factor X, P00742) | proteolytic cleavage and activation of purified factor X (Factor X (FX), P00742) | catalytic activity (kcat/KM) for activation of FX (Factor X (FX), P00742)
1 | B1 | 34% | 0.109 µM | 1.6e+07 M⁻¹ s⁻¹ | 1.7 s⁻¹ | – | – | – | – | – | – | –
2 | B2 | 155% | 0.0488 µM | 7.2e+07 M⁻¹ s⁻¹ | 3.4 s⁻¹ | – | – | – | – | – | – | –
3 | B3 | – | – | – | – | 10.5 s⁻¹ | 496% | 2.3e+08 M⁻¹ s⁻¹ | – | – | – | –
4 | B4 | 599% | – | 2.8e+08 M⁻¹ s⁻¹ | – | – | – | – | 7.9 s⁻¹ | 0.0344 µM | – | –
5 | B5 | 154% | – | 7.1e+07 M⁻¹ s⁻¹ | – | – | – | – | 5 s⁻¹ | 0.0727 µM | – | –
6 | B6 | 326% | – | 1.5e+08 M⁻¹ s⁻¹ | – | – | – | – | 5 s⁻¹ | 0.0403 µM | – | –
7 | B7 | 285% | – | 1.3e+08 M⁻¹ s⁻¹ | – | – | – | – | 8 s⁻¹ | 0.06 µM | – | –
8 | B8 | 1091% | 0.0177 µM | 5e+08 M⁻¹ s⁻¹ | 7.7 s⁻¹ | – | – | – | – | – | – | –
9 | B9 | 772% | – | 3.6e+08 M⁻¹ s⁻¹ | – | – | – | – | 8.5 s⁻¹ | 0.0276 µM | – | –
10 | B10 | 321% | – | 1.5e+08 M⁻¹ s⁻¹ | – | – | – | – | 6.6 s⁻¹ | 0.0446 µM | – | –
11 | B11 | 299% | 0.0409 µM | 1.4e+08 M⁻¹ s⁻¹ | 5.3 s⁻¹ | – | – | – | – | – | – | –
12 | B12 | 771% | – | 3.6e+08 M⁻¹ s⁻¹ | – | – | – | – | 7.9 s⁻¹ | 0.0242 µM | – | –
13 | B13 | 840% | – | 3.9e+08 M⁻¹ s⁻¹ | – | – | – | – | 8 s⁻¹ | 0.0244 µM | – | –
14 | B14 | 324% | – | 1.5e+08 M⁻¹ s⁻¹ | – | – | – | – | 4.5 s⁻¹ | 0.03 µM | catalyzes the proteolytic cleavage and activation of purified factor X to the same extent in the presence of (1) poly-L-lysine phospholipid/calcium, and (3) factor VIIIa/phospholipid/calcium | –
15 | B15 | – | – | – | 4.9 s⁻¹ | – | 728% | 3.4e+08 M⁻¹ s⁻¹ | – | – | – | displayed some of the greatest increases in catalytic activity
16 | B16 | 1579% | 0.0153 µM | 7.3e+08 M⁻¹ s⁻¹ | 10.6 s⁻¹ | – | – | – | – | – | – | –
17 | B17 | – | – | – | – | 5.7 s⁻¹ | 206% | 9.5e+07 M⁻¹ s⁻¹ | – | – | – | –
18 | B18 | – | 0.0259 µM | – | 5.7 s⁻¹ | – | 524% | 2.4e+08 M⁻¹ s⁻¹ | – | – | – | –
19 | B19 | 53% | – | 2.4e+07 M⁻¹ s⁻¹ | – | – | – | – | 2.7 s⁻¹ | 0.131 µM | – | –
20 | B20 | 761% | – | 3.5e+08 M⁻¹ s⁻¹ | – | – | – | – | 6 s⁻¹ | 0.0224 µM | – | –

Reference: patent US20210238260
